Assays:
human CD3 (human) [1] = biological target: human CD3 (human) (UniProt P07766); assay: Octet, protein binding affinity of the anti-CD3 arm of the bispecific; form of the CD3 protein not stated
human CD3 (human) [2] = biological target: human CD3 (human) (UniProt P07766)
human CD3 (human) [3] = biological target: human CD3 (human) (UniProt P07766); assay: flow cytometry, bispecific antibody on Jurkat cells; antibody concentration not given

human CD3 (human), sequence (P07766 23-207, chain 1 of 2): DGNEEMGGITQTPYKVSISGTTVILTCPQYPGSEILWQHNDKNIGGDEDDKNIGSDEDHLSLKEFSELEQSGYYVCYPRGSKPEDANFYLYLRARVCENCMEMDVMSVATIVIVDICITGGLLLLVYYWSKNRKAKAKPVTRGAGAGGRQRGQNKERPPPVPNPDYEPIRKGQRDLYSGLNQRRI
human CD3 (human), sequence (P04234 22-171, chain 2 of 2, further chain): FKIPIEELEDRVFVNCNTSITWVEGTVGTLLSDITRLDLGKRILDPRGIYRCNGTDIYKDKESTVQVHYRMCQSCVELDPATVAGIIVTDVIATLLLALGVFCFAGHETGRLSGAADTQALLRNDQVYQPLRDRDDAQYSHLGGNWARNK

B1: CD3_F2F-BCMA (bispecific antibody, part only; not given: anti-BCMA arm and common light chain, part only)
anti-CD3 heavy chain: EVQLVESGGGLVQPGRSLRLSCAASGFTFHNYAMHWVRQAPGKGLEWVSGISWNSGSIGYADSVKGRFTISRDNAKNSLYLQMNSLRAEDTALYYCAKDSRGYGDYSLGGAYWGQGTLVTVSS
Kd (human CD3 (human) [1]): 714 nM | %kill of U266 tumor cells with human pan T-cells at 333 ng/mL bispecific (human CD3 (human) [2]): 51% | IFNg released by pan T-cells, bispecific on plate-coated BCMA protein, at 12 ng/mL bispecific (human CD3 (human) [2]): 333 pg | IL-2 released by pan T-cells, bispecific on plate-coated BCMA protein, at 37 ng/mL bispecific (human CD3 (human) [2]): 44 pg | IL-6 released by pan T-cells, bispecific on plate-coated BCMA protein, at 111 ng/mL bispecific (human CD3 (human) [2]): 0.5 pg | IL-10 released by pan T-cells, bispecific on plate-coated BCMA protein, at 111 ng/mL bispecific (human CD3 (human) [2]): 2.4 pg | TNFa released by pan T-cells, bispecific on plate-coated BCMA protein, at 12 ng/mL bispecific (human CD3 (human) [2]): 485 pg | kill EC50: U266 tumor cell lysis with human pan T-cells (human CD3 (human) [2]): 0.0098 µg/mL | Jurkat cell bind (MFI) (human CD3 (human) [3]): 67 MFI

B2: CD3_F2B-BCMA (bispecific antibody, part only; not given: anti-BCMA arm and common light chain, part only)
anti-CD3 heavy chain: EVQLVESGGGLVQPGRSLRLSCAASGFTFDDYAMHWVRQAPGKGLEWVSGISWNSGSIGYADSVKGRFTISRDNAKNSLYLQMNSLRAEDTALYYCAKDSRGYGDYRLGGAYWGQGTLVTVSS
Kd (human CD3 (human) [1]): 1000 nM | %kill of U266 tumor cells with human pan T-cells at 333 ng/mL bispecific (human CD3 (human) [2]): 38% | IFNg released by pan T-cells, bispecific on plate-coated BCMA protein, at 12 ng/mL bispecific (human CD3 (human) [2]): 154 pg | IL-2 released by pan T-cells, bispecific on plate-coated BCMA protein, at 37 ng/mL bispecific (human CD3 (human) [2]): 8 pg | IL-6 released by pan T-cells, bispecific on plate-coated BCMA protein, at 111 ng/mL bispecific (human CD3 (human) [2]): 0.5 pg | IL-10 released by pan T-cells, bispecific on plate-coated BCMA protein, at 111 ng/mL bispecific (human CD3 (human) [2]): 0.6 pg | TNFa released by pan T-cells, bispecific on plate-coated BCMA protein, at 12 ng/mL bispecific (human CD3 (human) [2]): 553 pg | kill EC50: U266 tumor cell lysis with human pan T-cells (human CD3 (human) [2]): 0.15 µg/mL | Jurkat cell bind (MFI) (human CD3 (human) [3]): 31 MFI
